Measured values from the Human Domainome abundance scans (Beltran et al. 2025).
± gives the uncertainty stated by the source.

B1: Tumor protein p73, residues 487 to 549; numbered along this chain, O15350 (parent)
chain: YHADPSLVSFLTGLGCPNCIEYFTSQGLQSIYHLQNLTIEDLGALKIPEQYRMTIWRGLQDLK

Variants of: B1
Test: abundance fitness (aPCA) (normalised: wild type 0, dead -1); higher = more abundant; growth selection in yeast, the domain comes from the species named
Settings: Homo sapiens

Abundance fitness, by site and new letter:
E49: N 0.077 ± 0.12; G -0.123 ± 0.034; R 0.028 ± 0.039; S -0.056 ± 0.037; Y -0.181 ± 0.38; K -0.014 ± 0.05; T -0.036 ± 0.041; I -0.254 ± 0.41; V 0.009 ± 0.033; A 0.007 ± 0.039; D 0.105 ± 0.063; C -0.061 ± 0.052; H -0.047 ± 0.051; L -0.042 ± 0.036; Q -0.045 ± 0.064; F -0.355 ± 0.23; P 0.026 ± 0.066
M53: H 0.108 ± 0.075; N 0.01 ± 0.075; L 0.021 ± 0.032; R 0.027 ± 0.028; K -0.033 ± 0.078; S 0.008 ± 0.04; G -0.025 ± 0.032; P -0.051 ± 0.053; D 0.019 ± 0.047; A -0.025 ± 0.023; Y -0.302 ± 0.16; T 0.009 ± 0.043; W -0.04 ± 0.042; F -0.123 ± 0.063; V -0.061 ± 0.021; I -0.072 ± 0.1
Y51: D -0.072 ± 0.18; N -0.139 ± 0.11; A -0.005 ± 0.076; Q -0.124 ± 0.1; R -0.137 ± 0.04; F -0.032 ± 0.14; K 0.034 ± 0.1; V -0.06 ± 0.062; S -0.126 ± 0.055; H -0.086 ± 0.097; L -0.116 ± 0.058; E -0.09 ± 0.049; M -0.189 ± 0.048; C -0.083 ± 0.071; P -0.049 ± 0.094
I39: M -0.149 ± 0.27; W -0.231 ± 0.32
K46: T -0.102 ± 0.048; G 0.025 ± 0.027; W -0.249 ± 0.037; E -0.127 ± 0.043; C -0.08 ± 0.055; M -0.155 ± 0.057; P 0.01 ± 0.059; L -0.069 ± 0.032; D -0.138 ± 0.076; Y -0.301 ± 0.1; F -0.142 ± 0.085; S -0.043 ± 0.033; N 0.009 ± 0.057; R 0.041 ± 0.03; V -0.092 ± 0.034; I -0.345 ± 0.084
A44: P -0.041 ± 0.062; Q 0.036 ± 0.052; T -0.046 ± 0.063; R 0.135 ± 0.028; D 0.174 ± 0.085; N -0.061 ± 0.13; W -0.083 ± 0.038; C 0.02 ± 0.058; H -0.021 ± 0.063; I -0.218 ± 0.2; K 0.057 ± 0.043; L 0.06 ± 0.034; M 0.006 ± 0.05; S 0.057 ± 0.042; Y -0.007 ± 0.067; E 0.16 ± 0.055; G 0.072 ± 0.031; F 0.011 ± 0.095
G43: Y -0.005 ± 0.069; D -0.085 ± 0.082; N -0.003 ± 0.1; W -0.135 ± 0.056; K 0.119 ± 0.047; L 0.033 ± 0.046; V -0.018 ± 0.053; T 0.003 ± 0.052; Q 0.061 ± 0.046; H 0.16 ± 0.11; R -0.016 ± 0.042; A -0.102 ± 0.053; E 0.07 ± 0.061; P -0.012 ± 0.085; I -0.135 ± 0.1; S -0.013 ± 0.05; M 0.028 ± 0.066; C -0.049 ± 0.21
P48: W -1.07 ± 0.13; Q -0.208 ± 0.044; N -0.261 ± 0.1; A -0.091 ± 0.043; R -0.42 ± 0.038; E -0.067 ± 0.042; H -0.389 ± 0.083; Y -1.13 ± 0.21; D -0.054 ± 0.051; M -0.965 ± 0.091; L -1.1 ± 0.12; S -0.149 ± 0.037; F -1.3 ± 0.37; I -0.144 ± 0.18; C -0.51 ± 0.071; K -0.212 ± 0.043; V -0.924 ± 0.089; G -0.173 ± 0.036; T -0.247 ± 0.05
L45: R -0.241 ± 0.032; C -0.016 ± 0.041; Q -0.518 ± 0.083; E -0.553 ± 0.07; M 0.023 ± 0.038; Y 0.04 ± 0.1; N -0.224 ± 0.091; D -0.609 ± 0.15; S -0.272 ± 0.04; H -0.45 ± 0.15; K -0.216 ± 0.076; G -0.517 ± 0.046; W -0.345 ± 0.047; T -0.076 ± 0.039; A -0.18 ± 0.042; I 0.067 ± 0.076
Q50: N 0.009 ± 0.07; M 0.058 ± 0.052; Y -0.297 ± 0.086; W -0.135 ± 0.03; V 0.038 ± 0.035; R 0.051 ± 0.034; T -0.034 ± 0.05; K 0.06 ± 0.052; H 0.039 ± 0.065; I -0.192 ± 0.15; A 0.08 ± 0.035; S 0.045 ± 0.034; C 0.096 ± 0.059; E 0.047 ± 0.035; F -0.23 ± 0.087; P -0.132 ± 0.054; D -0.106 ± 0.2; L -0.036 ± 0.037; G 0.111 ± 0.04
T54: K 0.06 ± 0.047; M -0.116 ± 0.058; A -0.034 ± 0.042; W -0.142 ± 0.061; H 0.071 ± 0.087; G -0.074 ± 0.038; F -0.362 ± 0.14; Q 0.028 ± 0.068; E -0.061 ± 0.07; R 0.02 ± 0.043; V 0.088 ± 0.038
